Patent US5679782A, “Oligonucleotides encloding peptide inhibitors of urokinase receptor activity” (Chiron Corporation, priority 1995, dated 1997)
Like-named read-outs stand apart in the source and are kept apart here. Each block holds one compound with its values, some of them ahead of it. Peptide text beside a SMILES is read from it.

What was measured:
[1] = target: T1, substance P receptor (SPR) (Homo sapiens, UniProt P25103); assay: Recovery of phage on Sf9 cells expressing substance P receptor (control); format: binding; conditions: phage displaying the sequence
T1 construct: expressed in transfected cells; host or cells: Sf9 insect cells
T1 sequence (P25103 whole entry, species assumed): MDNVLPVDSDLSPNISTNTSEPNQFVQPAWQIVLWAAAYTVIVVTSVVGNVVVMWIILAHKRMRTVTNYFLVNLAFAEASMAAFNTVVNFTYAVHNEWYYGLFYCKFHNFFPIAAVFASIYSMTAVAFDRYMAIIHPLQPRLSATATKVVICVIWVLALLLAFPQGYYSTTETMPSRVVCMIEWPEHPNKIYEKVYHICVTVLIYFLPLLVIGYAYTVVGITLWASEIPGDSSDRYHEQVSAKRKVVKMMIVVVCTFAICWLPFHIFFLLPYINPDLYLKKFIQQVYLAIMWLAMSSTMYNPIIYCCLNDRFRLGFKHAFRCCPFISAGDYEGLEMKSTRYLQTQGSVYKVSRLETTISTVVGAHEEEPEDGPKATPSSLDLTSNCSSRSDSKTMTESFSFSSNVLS
Description: (§1) 3.) The phage selected in round 2 were reselected on Sf9 cells expressing fluPAR (day 2 post-infection) as described for round 1 (2.8×10^10 phage on 10^6 Sf9 cells). The yield of binding phage from this round was 5.40% (1.5×10^9 pfu), indicating a substantial enrichment in binding phage. Sample phage from the urea eluate were cloned, and their DNAs isolated and sequenced. Binding was assayed against Sf9 cells expressing fluPAR, and Sf9 cells expressing substance P receptor ("SPR," as a control).

huPAR = target: T2, huPAR (Homo sapiens, UniProt Q03405); assay: Recovery of phage on Sf9 cells expressing full length huPAR; format: binding; conditions: phage displaying the sequence; Sf9 cells expressing fluPAR
T2 construct: Sf9 cells expressing full length huPAR ("fluPAR", day 2 post infection); expressed in transfected cells; host or cells: Sf9 insect cells (day 2 post infection)
T2 sequence (Q03405 23-335): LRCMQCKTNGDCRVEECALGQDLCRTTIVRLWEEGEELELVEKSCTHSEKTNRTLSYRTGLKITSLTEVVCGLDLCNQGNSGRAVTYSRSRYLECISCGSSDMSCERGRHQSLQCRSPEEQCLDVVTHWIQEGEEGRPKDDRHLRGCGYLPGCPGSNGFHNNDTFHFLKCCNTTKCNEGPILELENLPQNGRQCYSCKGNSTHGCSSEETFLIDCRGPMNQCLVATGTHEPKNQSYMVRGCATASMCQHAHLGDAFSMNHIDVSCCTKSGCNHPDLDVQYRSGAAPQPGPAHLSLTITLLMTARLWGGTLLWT
Description: 1.) 15mer phage (2.5×10^10) prepared as described above were selected by coincubation with 10^6 Sf9 cells expressing full length huPAR ("fluPAR", day 2 post infection) at room temperature for 60 minutes in Grace's medium with 2% nonfat milk. Binding phage were eluted with 6M urea (pH 2.2), the pH neutralized by adding 2M Tris-HCl, and assayed. The yield of binding phage was 0.0013% (3.3×10^5 pfu). The phage were amplified on solid agar plates as plaques, eluted with Tris-buffered saline, and precipitated with polyethylene glycol.
as §1

human urokinase receptor = target: T3, human urokinase receptor (Homo sapiens, UniProt Q03405); assay: Competition of 125I-ATF binding to immobilized soluble recombinant human urokinase receptor; conditions: read-out: Affinity
T3 construct: expressed as a truncated, soluble molecule as described previously for mouse L-cells (Masucci et al., J Biol Chem (1991) 266:8655); made in house; host or cells: baculovirus / insect cells
T3 sequence (Q03405 23-299 limits assumed): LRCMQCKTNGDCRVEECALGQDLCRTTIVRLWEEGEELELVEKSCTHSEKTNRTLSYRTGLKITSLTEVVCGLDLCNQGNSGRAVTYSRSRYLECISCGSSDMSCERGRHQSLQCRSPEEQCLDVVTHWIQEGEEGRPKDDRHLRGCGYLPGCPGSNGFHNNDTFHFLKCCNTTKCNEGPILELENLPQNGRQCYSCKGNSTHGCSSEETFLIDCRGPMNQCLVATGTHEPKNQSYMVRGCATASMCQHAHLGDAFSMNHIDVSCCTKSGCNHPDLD
From the text: 4.) The peptides encoded by 25 phage were then synthesized by solid phase peptide chemistry on an Applied Biosystems Model 430A peptide synthesizer,using Boc chemistry, or were obtained from Chiron Mimotopes, Ltd., as soluble peptides. All peptides contained the Ala-Glu dipeptide at the amino terminus and were amidated at the carboxy terminus.
Baculovirus-derived recombinant human urokinase receptor was expressed as a truncated, soluble molecule as described previously for mouse L-cells (Masucci et al., J Biol Chem (1991) 266:8655). The purified receptor was biotinylated with NHS-biotin, and immobilized at 1 μg/mL in PBS/0.1% BSA on streptavidin coated 96-well plates. Human uPA ATF (residues 1-135, obtained from M. Shuman, University of California, San Francisco) was iodinated using the Iodogen method (Pierce), and used as tracer. The ^125 I-ATF was incubated at 100-500 pM with increasing amounts of peptide from 1 nM to 10 μM in triplicate for 2 hours at room temperature in 0.1% BSA/PBS in a total volume of 200 μL. The plates were then washed 3 times with PBS/BSA, and the remaining bound radioactivity determined.
*Assay performed at 100 pM ATF, 0.3 μg/ml suPAR in 200 μL. Other
assays are corrected to these conditions; corrections are about 3 ×
from previous assay conditions.

uPAR = uPAR (Homo sapiens, UniProt Q03405); conditions: Appella et al. 1987; cited from earlier work
Sequence of uPAR (Q03405 23-335, species assumed): as the sequence (Q03405 23-335) above

[2] = unstarred values: corrected to 100 pM ATF, 0.3 μg/ml suPAR, corrections about 3 × from previous assay conditions

- % Recovery SPR [1]: 0.008%
- % Recovery huPAR (huPAR): 6.8%
Compound: 37 (AECLNGGTAVSNKYFSNIHWCN) [compound 37]

- Kd (human urokinase receptor; [2]): 0.35 µM
Compound: CC(C)C[C@H](NC(=O)CNC(=O)[C@@H]1CCCN1C(=O)[C@H](Cc1c[nH]cn1)NC(=O)[C@H](Cc1c[nH]c2ccccc12)NC(=O)[C@H](CCC(=O)O)NC(=O)[C@H](C)N)C(=O)N[C@@H](CO)C(=O)N[C@@H](Cc1ccccc1)C(=O)NCC(=O)N[C@@H](CO)C(=O)N[C@@H](Cc1ccc(O)cc1)C(=O)N[C@@H](CC(C)C)C(=O)N[C@@H](Cc1c[nH]c2ccccc12)C(=O)N[C@@H](CO)C(=O)N[C@@H](CCCCN)C(=O)N[C@H](C(N)=O)[C@@H](C)O [compound 2] (H-AEWHPGLSFGSYLWSKT-NH2)

- Kd (human urokinase receptor; [2]): 5 µM
Compound: CSCC[C@H](NC(=O)[C@@H](NC(=O)[C@H](CC(N)=O)NC(=O)[C@H](CO)NC(=O)[C@H](CC(C)C)NC(=O)[C@H](Cc1ccccc1)NC(=O)[C@H](Cc1c[nH]c2ccccc12)NC(=O)[C@H](C)NC(=O)[C@H](CCC(=O)O)NC(=O)[C@H](C)N)[C@@H](C)O)C(=O)N[C@@H](CCCCN)C(=O)N[C@@H](C)C(=O)N[C@@H](CC(C)C)C(=O)N[C@@H](CO)C(=O)N[C@@H](C)C(=O)N[C@@H](CCCNC(=N)N)C(=O)N[C@@H](CC(C)C)C(N)=O [compound 13] (H-AEAWFLSNTMKALSARL-NH2)

Compound: uPA12-32: The critical domain alone, residues 12-32 of uPA EGF-like domain (DCLNGGTCVSNKYFSNIHWCN; UniProt P00749 32-52, looked up, fragment)
- affinity fold less than intact ATF (uPAR): about 100 fold

- Kd (human urokinase receptor; starred values: assay performed at 100 pM ATF, 0.3 μg/ml suPAR in 200 μL): 4 µM
Compound: CC(C)C[C@H](NC(=O)[C@H](CCCNC(=N)N)NC(=O)[C@H](CC(C)C)NC(=O)[C@@H]1CCCN1C(=O)[C@H](Cc1ccccc1)NC(=O)[C@H](CCC(N)=O)NC(=O)[C@H](Cc1ccc(O)cc1)NC(=O)[C@H](CC(C)C)NC(=O)[C@H](CCC(N)=O)NC(=O)[C@H](Cc1c[nH]c2ccccc12)NC(=O)[C@H](CC(C)C)NC(=O)[C@@H](NC(=O)[C@@H]1CCCN1C(=O)[C@H](CCC(=O)O)NC(=O)[C@H](C)N)[C@@H](C)O)C(=O)N[C@@H](CO)C(=O)NCC(N)=O [compound 14] (H-AEPTLWQLYQFPLRLSG-NH2)
